This note sets out measurements from patent US12366576B2, “Compositions, assays, and methods for direct modulation of fatty acid metabolism” (Dana-Farber Cancer Institute, Inc., priority 2016, dated 2025).

In this assay the target is T1, VLCAD (Homo sapiens, UniProt P49748).
T1 construct: 10x His (N); made in house; host or cells: E. coli BL21(DE3), pET19b
T1 sequence (P49748 40-655): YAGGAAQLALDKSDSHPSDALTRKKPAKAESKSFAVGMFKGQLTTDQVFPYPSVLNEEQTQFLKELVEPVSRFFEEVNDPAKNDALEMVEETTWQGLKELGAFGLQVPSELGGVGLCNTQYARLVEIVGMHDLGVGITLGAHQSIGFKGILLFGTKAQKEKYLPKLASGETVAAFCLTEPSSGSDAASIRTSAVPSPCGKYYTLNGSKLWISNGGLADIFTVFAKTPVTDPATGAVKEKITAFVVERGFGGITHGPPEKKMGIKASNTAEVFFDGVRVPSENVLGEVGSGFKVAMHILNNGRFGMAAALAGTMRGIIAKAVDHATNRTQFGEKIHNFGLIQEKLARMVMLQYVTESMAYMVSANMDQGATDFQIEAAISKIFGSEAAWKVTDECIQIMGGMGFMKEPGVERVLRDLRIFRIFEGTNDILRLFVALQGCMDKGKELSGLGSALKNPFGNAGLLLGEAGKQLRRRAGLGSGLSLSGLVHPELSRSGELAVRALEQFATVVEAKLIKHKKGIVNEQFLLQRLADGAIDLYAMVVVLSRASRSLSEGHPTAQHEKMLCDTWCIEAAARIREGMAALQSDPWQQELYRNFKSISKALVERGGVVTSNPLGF
In words: Biolayer interferometry. It is filed as binding. The note with it: Biotin-PEG peptide immobilized on streptavidin sensors. The procedure: To measure the direct binding interaction, ^19F NMR binding studies were conducted using fluorinated analogs of MCL-1 SAHBD. […] Both SAHBs, however, bind MCL-1ΔNΔC, as illustrated by a chemical shift of the peptide NMR peak in both cases (FIG. 15). […] To perform these experiments, N-terminal Btn-PEG analogs of the peptides were immobilized onto streptavidin probes that were then placed into protein solutions at a variety of concentrations to measure ligand-target association.
VLCAD. Mature human VLCAD lacking its cleavable leader sequence (aa 40-655) (NP_000009.1) was subcloned into the pET19b vector (Novagen) using NdeI and XhoI restriction sites. Correct insertion was confirmed by DNA sequencing. The 10× His-tagged VLCAD construct was expressed in BL21(DE3) E. coli, and once cells reached an OD of 0.8 after growing at 37° C., they were induced with 0.5 mM […] (IPTG) (Gold Biotechnology I2481C) at 37° C. for 4 hours. Bacterial pellets were resuspended in lysis buffer (500 mM NaCl, 50 mM HEPES, 5% glycerol, pH 7.5, complete protease inhibitor tablet) and lysed by microfluidization (M-110L; Microfluidics). […]
BLI binding measurements were performed using an Octet Red384 System (ForteBio). […] Binding parameters were calculated using the accompanying Octet Software version 9 (ForteBio).
For orientation: In BLI a coated tip is dipped into the sample, and binding shifts an interference pattern.

Bridge positions count the residues as written; N and C are the ends. Square brackets hold non-standard residues; d marks the D form. Ends that are not written are not given here. S5 = C=CCCC[C@](C)(N)C(=O)O

Consider “MCL-1 SAHBD: hydrocarbon-stapled peptide mimicking the MCL-1 BH3 domain (Stabilized Alpha-Helix of BCL-2 Domain), SEQ ID NO:19 (RKALETLRRVGDGV[S5]RNH[S5]TAF; staple 15-19)”, for which the “biolayer interferometry association with VLCAD” value was “engages VLCAD”.
